Experimental data reported in patent US20060058231A1 (Xencor, published 2006).
Substitutions are numbered along the chain they refer to.

T1: BMPRII receptor-Fc fusion (UniProt Q13873 27-151, limits assumed)
T1 construct: BMP receptor-Fc fusion used at 5 ug/mL
T1 sequence (looked up): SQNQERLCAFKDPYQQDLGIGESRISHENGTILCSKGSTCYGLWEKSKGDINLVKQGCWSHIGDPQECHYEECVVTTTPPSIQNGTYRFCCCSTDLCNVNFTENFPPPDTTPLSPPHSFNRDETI

T2: BMPRIb receptor-Fc fusion (UniProt O00238 14-126)
T2 construct: BMP receptor-Fc fusion used at 5 ug/mL; also called ALK-6
T2 sequence (looked up): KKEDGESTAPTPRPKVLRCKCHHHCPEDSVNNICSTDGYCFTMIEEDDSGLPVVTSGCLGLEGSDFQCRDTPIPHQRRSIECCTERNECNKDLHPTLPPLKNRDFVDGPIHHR

B1: BMP-7 variant R48N (ligand)
chain: STGGKQRSQNRSKTPKNQEALRMASVAENSSSDQRQACKKHELYVSFNDLGWQDWIIAPEGYAAYYCEGECAFPLNSYMNATNHAIVQTLVHFINPETVPKPCCAPTQLNAISVLYFDDSSNVILKKYRNMVVRACGCH
notes: In conditioned media; numbering on mature BMP-7
B2: BMP-7 variant Y78P (ligand)
chain: B1 chain with N48R, Y78P
notes: as for B1
B3: BMP-7 variant R48Q (ligand)
chain: B1 chain with N48Q
notes: as for B1
B4: BMP-7 variant V123G (ligand)
chain: B1 chain with N48R, V123G
notes: as for B1
B5: BMP-7 variant Y78H (ligand)
chain: B1 chain with N48R, Y78H
notes: as for B1
B6: BMP-7 variant W55R (ligand)
chain: B1 chain with N48R, W55R
notes: as for B1
B7: BMP-7 variant W55N (ligand)
chain: B1 chain with N48R, W55N
notes: as for B1
B8: BMP-7 variant R129K (ligand)
chain: B1 chain with N48R, R129K
notes: as for B1
B9: BMP-7 variant Y78D (ligand)
chain: B1 chain with N48R, Y78D
notes: as for B1
B10: BMP-7 variant V26G (ligand)
chain: B1 chain with V26G, N48R
notes: as for B1
B11: BMP-7 variant Y44T (ligand)
chain: B1 chain with Y44T, N48R
notes: as for B1
B12: BMP-7 variant S77T (ligand)
chain: B1 chain with N48R, S77T
notes: as for B1
B13: BMP-7 variant R129S (ligand)
chain: B1 chain with N48R, R129S
notes: as for B1
B14: BMP-7 variant V26E (ligand)
chain: B1 chain with V26E, N48R
notes: as for B1
B15: BMP-7 variant V26N (ligand)
chain: B1 chain with V26N, N48R
notes: as for B1
B16: BMP-7 variant S77E (ligand)
chain: B1 chain with N48R, S77E
notes: as for B1
B17: BMP-7 variant W52A (ligand)
chain: B1 chain with N48R, W52A
notes: as for B1
B18: BMP-7 variant Y44N (ligand)
chain: B1 chain with Y44N, N48R
notes: as for B1
B19: BMP-7 variant Y78T (ligand)
chain: B1 chain with N48R, Y78T
notes: as for B1
B20: BMP-7 variant R129N (ligand)
chain: B1 chain with N48R, R129N
notes: as for B1
B21: BMP-7 variant R134K (ligand)
chain: B1 chain with N48R, R134K
notes: as for B1
B22: BMP-7 variant R129D (ligand)
chain: B1 chain with N48R, R129D
notes: as for B1
B23: BMP-7 variant Y128K (ligand)
chain: B1 chain with N48R, Y128K
notes: as for B1
B24: BMP-7 variant Y78S (ligand)
chain: B1 chain with N48R, Y78S
notes: as for B1
B25: BMP-7 variant Y78R (ligand)
chain: B1 chain with N48R, Y78R
notes: as for B1
B26: BMP-7 variant S77P (ligand)
chain: B1 chain with N48R, S77P
notes: as for B1

What was measured:
Experiment in all cases: ELISA-like plate assay, captured BMP-7 from conditioned media, receptor-Fc detection
[1] = biological target: T3, BMPRIa receptor-Fc fusion (UniProt P36894 24-152, limits assumed)
T3 construct: also called ALK-3
T3 sequence (P36894 24-152 limits assumed): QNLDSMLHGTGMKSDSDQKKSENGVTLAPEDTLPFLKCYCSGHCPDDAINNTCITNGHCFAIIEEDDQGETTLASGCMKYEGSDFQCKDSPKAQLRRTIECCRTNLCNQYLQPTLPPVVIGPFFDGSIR

[2] = biological target: T1, BMPRII receptor-Fc fusion
[3] = biological target: T4, ActRIIa receptor-Fc fusion (UniProt P27037 20-134, limits assumed)
T4 construct: BMP receptor-Fc fusion used at 5 ug/mL
T4 sequence (P27037 20-134 limits assumed): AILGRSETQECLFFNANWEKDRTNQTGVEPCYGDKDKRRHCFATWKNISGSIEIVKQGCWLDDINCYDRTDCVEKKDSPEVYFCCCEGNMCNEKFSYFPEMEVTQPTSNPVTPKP

[4] = biological target: T2, BMPRIb receptor-Fc fusion

| BMPRIa binding (relative to wild type = 1.0) [1] | BMPRII binding (relative to wild type = 1.0) [2] | ActRIIa binding (relative to wild type = 1.0) [3] | BMPRIb binding (relative to wild type = 1.0) [4] | Binder |
| --- | --- | --- | --- | --- |
| 1.87 relative to wild type | 0.13 relative to wild type | 0.93 relative to wild type | 0.43 relative to wild type | B1 |
| 0.75 relative to wild type | 0.85 relative to wild type | 0.92 relative to wild type | 0.69 relative to wild type | B2 |
| 1.06 relative to wild type | 0.15 relative to wild type | 0.8 relative to wild type | 0.85 relative to wild type | B3 |
| 0.67 relative to wild type | 0.22 relative to wild type | 0.53 relative to wild type | 0.17 relative to wild type | B4 |
| 1.36 relative to wild type | 1.47 relative to wild type | 1.07 relative to wild type | 1.34 relative to wild type | B5 |
| 1.75 relative to wild type | 1.52 relative to wild type | 1.2 relative to wild type | 2.17 relative to wild type | B6 |
| 0.35 relative to wild type | 0.82 relative to wild type | 0.41 relative to wild type | 0 relative to wild type | B7 |
| 0.69 relative to wild type | 0.78 relative to wild type | 1.12 relative to wild type | 0.77 relative to wild type | B8 |
| 1.05 relative to wild type | 2.72 relative to wild type | 1.93 relative to wild type | 2.01 relative to wild type | B9 |
| 1.08 relative to wild type | 1 relative to wild type | 1.07 relative to wild type | 1.66 relative to wild type | B10 |
| 1.09 relative to wild type | 0.25 relative to wild type | 0.36 relative to wild type | 1.33 relative to wild type | B11 |
| 0.77 relative to wild type | 0.97 relative to wild type | 1.15 relative to wild type | 0.79 relative to wild type | B12 |
| 0.32 relative to wild type | 0.26 relative to wild type | 0.62 relative to wild type | 0.37 relative to wild type | B13 |
| 1.02 relative to wild type | 0.73 relative to wild type | 1.02 relative to wild type | 1.38 relative to wild type | B14 |
| 1.14 relative to wild type | 0.97 relative to wild type | 1 relative to wild type | 1.43 relative to wild type | B15 |
| 0.81 relative to wild type | 0.98 relative to wild type | 1.17 relative to wild type | 0.94 relative to wild type | B16 |
| 0.92 relative to wild type | 1.25 relative to wild type | 1.69 relative to wild type | 0.33 relative to wild type | B17 |
| 2.05 relative to wild type | 1.46 relative to wild type | 0.45 relative to wild type | 1.81 relative to wild type | B18 |
| 0.87 relative to wild type | 2.66 relative to wild type | 1.63 relative to wild type | 2.4 relative to wild type | B19 |
| 0.89 relative to wild type | 1.4 relative to wild type | 1.1 relative to wild type | 1.03 relative to wild type | B20 |
| 1.05 relative to wild type | 0.91 relative to wild type | 1.18 relative to wild type | 1.11 relative to wild type | B21 |
| 0.93 relative to wild type | 1.86 relative to wild type | 1.13 relative to wild type | 1.16 relative to wild type | B22 |
| 1.4 relative to wild type | 1.78 relative to wild type | 1.11 relative to wild type | 1.57 relative to wild type | B23 |
| 1.29 relative to wild type | 1.77 relative to wild type | 1.58 relative to wild type | 2.75 relative to wild type | B24 |
| 1.36 relative to wild type | 3.13 relative to wild type | 2.26 relative to wild type | 2.39 relative to wild type | B25 |
| 0.58 relative to wild type | 0.91 relative to wild type | 1 relative to wild type | 0.79 relative to wild type | B26 |
